The target of one experiment is KLC1 TPR domain. The experiment is described as follows: FP.
In the next experiment the target is KLC2 TPR domain. Nature of the experiment: FP.

In paper PMC13078783 (2026) one finds Kd data, which are given here for one molecule.

Chain of KLC2 TPR domain (chain, as listed by the source): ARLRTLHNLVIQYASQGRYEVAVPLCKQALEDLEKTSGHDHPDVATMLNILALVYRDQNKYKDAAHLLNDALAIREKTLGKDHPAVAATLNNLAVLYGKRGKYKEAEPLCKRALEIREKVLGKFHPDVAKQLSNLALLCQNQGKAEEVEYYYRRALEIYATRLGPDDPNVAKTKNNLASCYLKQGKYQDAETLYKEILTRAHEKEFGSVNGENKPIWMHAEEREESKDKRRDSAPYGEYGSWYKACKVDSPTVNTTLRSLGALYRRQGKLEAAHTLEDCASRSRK
Chain of KLC1 TPR domain (chain, as listed by the source): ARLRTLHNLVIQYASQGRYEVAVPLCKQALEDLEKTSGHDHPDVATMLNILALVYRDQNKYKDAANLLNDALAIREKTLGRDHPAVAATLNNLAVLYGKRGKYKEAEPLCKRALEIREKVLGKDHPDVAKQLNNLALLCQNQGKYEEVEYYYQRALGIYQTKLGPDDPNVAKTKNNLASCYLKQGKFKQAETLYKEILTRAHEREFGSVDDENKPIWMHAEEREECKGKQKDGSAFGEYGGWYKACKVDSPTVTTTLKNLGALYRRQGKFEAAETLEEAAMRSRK

Regarding {TAMRA}-STNLEWDDSAI-NH2 [SKIP W-acidic motif peptide], the Kd was determined as 830 nM with KLC1 TPR domain and 750 nM with KLC2 TPR domain.
